Data as given in publication PMC2768541 (Journal of molecular biology, 2009).

What was measured:
[1] = molecular target: TRTK12 (CapZ peptide) TRTK12 (Homo sapiens) (UniProt P52907); details: cited from earlier work
RyRP12 RyRP12 = RyRP12 RyRP12 (UniProt P21817); details: cited from earlier work
S100A1 = molecular target: T1, S100A1 (Rattus norvegicus, UniProt P35467); details: read-out: KD of S100A1 for RyRP12; ref [36]; [47]; cited from earlier work
T1 sequence (P35467 2-94 limits assumed): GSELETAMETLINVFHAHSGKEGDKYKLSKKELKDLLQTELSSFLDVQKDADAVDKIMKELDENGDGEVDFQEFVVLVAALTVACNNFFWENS

[2] = molecular target: T2, TAMRA-TRTK12 (CapZ alpha subunit peptide) (not fully specified); assay: fluorescence anisotropy
T2 chain: {TAMRA}-TRTKIDWNKILS-NH2

[3] = molecular target: T3, TRTK12 (CapZ alpha subunit peptide) (not fully specified)
T3 chain: Ac-TRTKIDWNKILS-NH2

For S100B (from UniProt P04631), the Kd [1] is listed as 7 µM.

For S100A1 (from UniProt P35467), the Kd (RyRP12 RyRP12) is listed as 8 µM.

In the case of KKAVWHKLLSKQ [RyRP12], the Kd (S100A1) is listed as 8 µM.

B1: S100A1 (protein)
chain: MGSELETAMETLINVFHAHSGKEGDKYKLSKKELKDLLQTELSSFLDVQKDADAVDKIMKELDENGDGEVDFQEFVVLVAALTVACNNFFWENS
Work on B1 yielded a Kd [2] of 1 µM and a Kd [3] of 23 µM.
